Patent publication US20170313754A1 (PROTAGONIST THERAPEUTICS, published 2017)
Numbered stars: 1 amine (or outer) side, 2 acyl side, 3 side chain; on linkers, the order of the positions; unused ones are H or OH. Bridge positions count the residues as written; N and C are the ends. Square brackets hold non-standard residues; d marks the D form. Primed or numbered codes have the meaning given here. Ends that are not written are not given here. * marks the point of attachment. IDA = iminodiacetic acid, O=C(CN(CC(=O)[*:3])[*:1])[*:2]; Ida = iminodiacetic acid, O=C(CN(CC(=O)[*:3])[*:1])[*:2]; PEG3′ = NH2CH2CH2(OCH2CH2)3CH2CH2CO2H (PEG3 linker); Dip = N[C@H](C(=O)O)C(c1ccccc1)c1ccccc1; Palmitoyl = CCCCCCCCCCCCCCCC(=O)*; β3hF = N[C@H](CC(=O)O)Cc1ccccc1; pGlu = O=C1CC[C@@H](C(=O)O)N1; β3hP = O=C(O)C[C@@H]1CCCN1; Isovaleryl = CC(C)CC(=O)*; Palm = palmitoyl

T1: human ferroportin (SLC40A1) fused in frame with GFP, stably expressed on HEK293 cells (human, UniProt Q9NP59 1-571)
T1 sequence (looked up): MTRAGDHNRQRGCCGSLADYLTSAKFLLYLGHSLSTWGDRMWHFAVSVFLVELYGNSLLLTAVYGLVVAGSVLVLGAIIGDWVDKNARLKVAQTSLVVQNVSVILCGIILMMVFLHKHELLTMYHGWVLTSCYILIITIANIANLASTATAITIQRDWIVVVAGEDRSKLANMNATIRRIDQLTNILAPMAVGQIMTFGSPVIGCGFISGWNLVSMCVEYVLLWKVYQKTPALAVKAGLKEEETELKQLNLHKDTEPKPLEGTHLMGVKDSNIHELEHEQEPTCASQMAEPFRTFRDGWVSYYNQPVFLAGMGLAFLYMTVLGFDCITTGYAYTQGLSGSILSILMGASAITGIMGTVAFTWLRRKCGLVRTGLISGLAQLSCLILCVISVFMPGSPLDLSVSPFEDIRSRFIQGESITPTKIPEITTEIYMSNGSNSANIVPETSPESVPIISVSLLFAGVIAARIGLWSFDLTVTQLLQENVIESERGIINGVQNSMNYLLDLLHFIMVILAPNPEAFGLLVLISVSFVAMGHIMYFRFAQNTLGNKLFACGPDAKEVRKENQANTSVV

T2: human ferroportin (SLC40A1) fused in frame with GFP, stably expressed on HEK293 cells (human, UniProt Q9NP59 1-571)
T2 sequence (looked up): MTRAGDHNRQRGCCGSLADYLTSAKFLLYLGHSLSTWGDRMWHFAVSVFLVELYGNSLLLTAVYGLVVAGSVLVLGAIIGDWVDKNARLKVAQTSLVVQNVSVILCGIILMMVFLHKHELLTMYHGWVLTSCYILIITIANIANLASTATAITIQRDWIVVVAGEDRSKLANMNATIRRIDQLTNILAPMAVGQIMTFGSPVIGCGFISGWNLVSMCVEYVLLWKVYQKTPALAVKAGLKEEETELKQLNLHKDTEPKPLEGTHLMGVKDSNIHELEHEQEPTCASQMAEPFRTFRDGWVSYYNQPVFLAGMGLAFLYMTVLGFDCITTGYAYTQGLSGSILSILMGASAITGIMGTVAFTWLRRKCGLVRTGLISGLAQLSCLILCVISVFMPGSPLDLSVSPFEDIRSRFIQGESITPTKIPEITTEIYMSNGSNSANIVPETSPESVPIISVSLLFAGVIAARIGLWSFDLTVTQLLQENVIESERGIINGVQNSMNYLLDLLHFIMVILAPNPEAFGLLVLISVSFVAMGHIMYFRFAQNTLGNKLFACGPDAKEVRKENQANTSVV


The binders below were run against T1, human ferroportin (SLC40A1) fused in … (assay: cell-based or functional assay).

Binder	Potency EC50 (nM), ferroportin internalization/degradation assay (loss of GFP fluorescence)
DTHFPCIIFXPHSKGWVC (N-terminal isovaleric acid; sarcosine [Sarc] at position 10; N-methyl-tryptophan [N-MeTrp] at position 16; C-terminal amide (-NH2)) [Cmpd6: Isovaleric acid-DTHFPCIIF-[Sarc]-PHSKG-[N-MeTrp]-VC-NH2]	9 nM

The binders below were run against T2, human ferroportin (SLC40A1) fused in … (assay: cell-based or functional assay).

Binder	Potency EC50 (nM), ferroportin internalization/degradation assay
Isovaleryl-DTHFPCIKFAA-NH2 (also: homodimer, linkage of subunits not given here) [(isovaleric acid-DTHFPCIKFAA-NH2)2]	47 nM
DTHFPICIFK (N-terminal isovaleric acid; Palm on the side chain of Lys 10; C-terminal amide) [(isovaleric acid-DTHFPICIFK(Palm)-NH2)2]	580 nM
Isovaleryl-DTHFPCIK(Palmitoyl)F-NH2 (also: homodimer, linkage of subunits not given here) [(isovaleric acid-DTHFPCIK(Palm)-F-NH2)2]	294 nM

Molecular target: T2, human ferroportin (SLC40A1) fused in …
Assay: cell-based or functional assay
Remark: another data set of the same source

Binder	Potency EC50 (nM), ferroportin degradation
H-DTHFPICIF-NH2 [Mini-Hepcidin 1-9, Hy-DTHFPICIF-NH2]	712 nM
FICIPFHTD (all nine residues are D-amino acids (retro inverse); C-terminal amide) [RI-Mini Hepcidin, Hy-DPhe-DIle-DCys-DIle-DPro-DPhe-DHis-DThr-DAsp-NH2]	> 10000 nM

Molecular target: T2, human ferroportin (SLC40A1) fused in …
Assay: cell-based or functional assay
Remark: another data set of the same source

Binder	EC50 (nM) (n > 3), ferroportin internalization/degradation assay
DTHFPCIKF (N-terminal isobutyric acid on each subunit; the two subunits are joined at their C-termini through a [Lys] linker, which is followed by K(iso-Glu-Palm)-NH2) [(isobutyric acid-DTHFPCIKF)2[Lys]K(iso-Glu-Palm)-NH2]	24 nM
DTHFPCIKF (N-terminal isovaleric acid on each subunit; the two subunits are joined at their C-termini through a [Lys]-NH2 linker) [(Isovaleric acid-DTHFPCIKF)2[Lys]-NH2]	30 nM
Isovaleryl-DTHFPCIRFK-{K(γGlu-Palm)-NH2} (also: dimer: two subunits joined at C-termini through a Lys linker) [(Isovaleric acid-DTHFPCIRF)2[Lys]-K(iso-Glu-Palm)-NH2]	4 nM
DTHFPCIKF (N-terminal isovaleric acid on each subunit; the two subunits are joined at their C-termini through a [Lys] linker, which is followed by K(iso-Glu-Palm)-NH2) [(isovaleric acid-DTHFPCIKF)2[Lys]K(iso-Glu-Palm)-NH2]	14 nM
DTHFPCIKF (N-terminal isovaleric acid on each subunit; the two subunits are joined at their C-termini through a [Lys] linker, which is followed by Lys(Palm)-NH2) [(Isovaleric acid-DTHFPCIKF)2[Lys]-Lys(Palm)-NH2]	16 nM

Molecular target: T2, human ferroportin (SLC40A1) fused in …
Assay: cell-based or functional assay
Remark: another data set of the same source

Binder	EC50 (nM) (n > 3), ferroportin internalization/degradation assay
DTHFPCIKF (N-terminal isobutyric acid on each subunit; the two subunits are joined at their C-termini through a [Lys] linker, which is followed by K(iso-Glu-Palm)-NH2) [(isobutyric acid-DTHFPCIKF)2[Lys]K(iso-Glu-Palm)-NH2]	24 nM
DTHFPCIKF (N-terminal isovaleric acid on each subunit; the two subunits are joined at their C-termini through a [Lys]-NH2 linker) [(Isovaleric acid-DTHFPCIKF)2[Lys]-NH2]	30 nM
Isovaleryl-DTHFPCIRFK-{K(γGlu-Palm)-NH2} (also: dimer: two subunits joined at C-termini through a Lys linker) [(Isovaleric acid-DTHFPCIRF)2[Lys]-K(iso-Glu-Palm)-NH2]	4 nM
DTHFPCIKF (N-terminal isovaleric acid on each subunit; the two subunits are joined at their C-termini through a [Lys] linker, which is followed by K(iso-Glu-Palm)-NH2) [(isovaleric acid-DTHFPCIKF)2[Lys]K(iso-Glu-Palm)-NH2]	14 nM

Molecular target: T2, human ferroportin (SLC40A1) fused in …
Assay: cell-based or functional assay
Remark: another data set of the same source

Binder	Ferroportin internalization assay EC50
Isovaleryl-DTEFPCIKFEPRSKEWVCK-NH2 (disulfide 6-18 (inferred)) [Isovaleric acid-DTEFPCIKFEPRSKEWVCK-NH2]	> 1000 nM

Molecular target: T2, human ferroportin (SLC40A1) fused in …
Assay: cell-based or functional assay
Remark: another data set of the same source

Binder	Potency EC50 (nM), ferroportin internalization/degradation assay	percent at the stated concentration (printed in the Potency EC50 column), ferroportin internalization/degradation assay
H-DTHFPCLF-NH2 (also: homodimer, link between subunits not given here) [(Hy-DTHFPCLF-NH2)2]	297 nM	–
[pGlu]THFPCRKF-NH2 (also: homodimer, linkage of subunits not given here) [([pGlu]-THFPCRKF-NH2)2]	–	31 % at 10 uM

Molecular target: T2, human ferroportin (SLC40A1) fused in …
Assay: cell-based or functional assay
Remark: another data set of the same source

Binder	Potency EC50 (nM), ferroportin internalization/degradation assay
[Ida]TH[Dip][β3hP]RCR[β3hF]-{PEG3′-Palm} (also: homodimer, linkage not given here) [(Ida-TH-Dpa-bhPro-RCR-bhPhe-PEG3-Palm)2]	31 nM
H-DTHFPICIF-NH2 (also: homodimer, link between subunits not given here) [(Hy-DTHFPICIF-NH2)2]	146 nM

Molecular target: T2, human ferroportin (SLC40A1) fused in …
Assay: cell-based or functional assay
Remark: another data set of the same source

Binder	EC50 (nM), ferroportin internalization/degradation assay	percent at the stated concentration, ferroportin internalization/degradation assay
H-DTHFPCLIF-NH2 [Hy-DTHFPCLIF-NH2]	> 10000 nM	–
H-DTHFPCKIF-NH2 [Hy-DTHFPCKIF-NH2]	–	9 % at 10 uM
H-DTHFPCLF-NH2 [Hy-DTHFPCLF-NH2]	–	39 % at 1 uM
H-DTHFPCIFGPRSKGWVC-NH2 (disulfide 6-17 (inferred)) [Hy-DTHFPCIFGPRSKGWVC-NH2]	> 1000 nM	–
[IDA]THF[β3hP]CRR[β3hF]GPRSKGWVC-NH2 (disulfide 6-18 (inferred)) [[IDA]-THF-[bhPro]-CRR-[bhPhe]GPRSKGWVC-NH2]	> 1000 nM	–
H-DTHFPRRFGPRSKGWVC-NH2 [Hy-DTHFPRRFGPRSKGWVC-NH2]	> 1000 nM	–
H-DTHFPCEIF-NH2 [Hy-DTHFPCEIF-NH2]	> 1000 nM	–
Isovaleryl-DTHFPCRRFGPRSKGWVCK-NH2 (disulfide 6-18 (inferred)) [Isovaleric acid-DTHFPCRRFGPRSKGWVCK-NH2]	> 1000 nM	–
H-DTHFPCRRF-NH2 [Hy-DTHFPCRRF-NH2]	> 10000 nM	–
[pGlu]THFPCRKF-NH2 (SMILES C[C@@H](O)[C@H](NC(=O)[C@@H]1CCC(=O)N1)C(=O)N[C@@H](Cc1c[nH]cn1)C(=O)N[C@@H](Cc1ccccc1)C(=O)N1CCC[C@H]1C(=O)N[C@@H](CS)C(=O)N[C@@H](CCCNC(=N)N)C(=O)N[C@@H](CCCCN)C(=O)N[C@@H](Cc1ccccc1)C(N)=O) [Hy-[pGlu]-THFPCRKF-NH2]	> 1000 nM	–
H-DTHFPCRIF-NH2 [Hy-DTHFPCRIF-NH2, listing 1 of 2 here]	> 1000 nM	–
H-DTHFPCAIF-NH2 [Hy-DTHFPCAIF-NH2]	> 1000 nM	–
H-DTHFPCRF-NH2 [Hy-DTHFPCRF-NH2]	–	31 % at 10 uM
H-DTHFPCRIFGPRSRGWVCK-NH2 (disulfide 6-18 (inferred)) [Hy-DTHFPCRIFGPRSRGWVCK-NH2]	> 1000 nM	–
H-DTHFPCRIF-NH2 [Hy-DTHFPCRIF-NH2, listing 2 of 2 here]	–	31 % at 10 uM
H-DTHFPCQIF-NH2 [Hy-DTHFPCQIF-NH2]	> 1000 nM	–
H-DTHFPCVIF-NH2 [Hy-DTHFPCVIF-NH2]	–	81 % at 10 uM
